Target: Recombinant human active MMP-3 (ab96555, Abcam) (human) (UniProt P08254)
Assay: cell-based or functional assay

UniProt P08254, sequence (P08254 100-477 limits assumed): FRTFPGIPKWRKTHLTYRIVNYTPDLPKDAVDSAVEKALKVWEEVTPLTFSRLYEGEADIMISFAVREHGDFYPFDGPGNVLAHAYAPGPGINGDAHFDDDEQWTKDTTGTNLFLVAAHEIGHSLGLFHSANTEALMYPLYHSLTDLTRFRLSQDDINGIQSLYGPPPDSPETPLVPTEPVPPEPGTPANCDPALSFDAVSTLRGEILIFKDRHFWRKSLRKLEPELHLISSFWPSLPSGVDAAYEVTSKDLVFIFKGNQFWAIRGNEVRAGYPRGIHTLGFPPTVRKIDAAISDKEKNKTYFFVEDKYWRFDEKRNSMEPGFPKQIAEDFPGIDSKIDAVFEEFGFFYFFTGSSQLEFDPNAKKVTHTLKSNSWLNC

TEER reduction of HTM monolayers over 24 h: 10 ng/ml active MMP-3 against MMP-3 inactivated by incubation with TIMP-1: 4.29 Ohm·cm^2 | TEER reduction of SCEC monolayers over 24 h: 10 ng/ml active MMP-3 against MMP-3 inactivated by incubation with TIMP-1: 5.62 Ohm·cm^2 | increase in paracellular flux (Papp) of 70 kDa FITC-dextran through HTM monolayers: active MMP-3 against TIMP-1-inactivated MMP-3: 4e-05 ×10⁻⁶ cm/s | increase in paracellular flux (Papp) of 70 kDa FITC-dextran through SCEC monolayers: active MMP-3 against TIMP-1-inactivated MMP-3: 0.00014 ×10⁻⁶ cm/s
Substance: Recombinant human active TIMP-1 (ab82104, Abcam) (from UniProt P01033 24-207)

Reference: patent US20190358305A1
